Experimental data reported in patent US20020106675.

Target: F7 protein

B1: Pfu DNA polymerase (α-type DNA polymerase) (protein)
chain: MILDVDYITEEGKPVIRLFKKENGKFKIEHDRTFRPYIYALLRDDSKIEEVKKITGERHGKIVRIVDVEKVEKKFLGKPITVWKLYLEHPQDVPTIREKVREHPAVVDIFEYDIPFAKRYLIDKGLIPMEGEEELKILAFDIETLYHEGEEFGKGPIIMISYADENEAKVITWKNIDLPYVEVVSSEREMIKRFLRIIREKDPDIIVTYNGDSFDFPYLAKRAEKLGIKLTIGRDGSEPKMQRIGDMTAVEVKGRIHFDLYHVITRTINLPTYTLEAVYEAIFGKPKEKVYADEIAKAWESGENLERVAKYSMEDAKATYELGKEFLPMEIQLSRLVGQPLWDVSRSSTGNLVEWFLLRKAYERNEVAPNKPSEEEYQRRLRESYTGGFVKEPEKGLWENIVYLDFRALYPSIIITHNVSPDTLNLEGCKNYDIAPQVGHKFCKDIPGFIPSLLGHLLEERQKIKTKMKETQDPIEKILLDYRQKAIKLLANSFYGYYGYAKARWYCKECAESVTAWGRKYIELVWKELEEKFGFKVLYIDTDGLYATIPGGESEEIKKKALEFVKYINSKLPGLLELEYEGFYKRGFFVTKKRYAVIDEEGKVITRGLEIVRRDWSEIAKETQARVLETILKHGDVEEAVRIVKEVIQKLANYEIPPEKLAIYEQITRPLHEYKAIGPHVAVAKKLAAKGVKIKPGMVIGYIVLRGDGPISNRAILAEEYDPKKHKYDAEYYIENQVLPAVLRILEGFGYRKEDLRYQKTRQVGLTSWLNIKKS
ratio of the primer extension activity to the incorporation activity, about 320 kilodalton gel filtration fraction (Pfu DNA polymerase-F7 complex); about 76 kilodalton fraction (Pfu DNA polymerase alo): the ratio of 0.65 was obtained for the about 320 kilodalton fraction
